Measured values: patent US20250222125A1, “Anti-FGFR2b Antibodies, Conjugates and Methods of Use” (BeiGene, Ltd., priority 2024, published 2025)
pEC50, pKd: −log10 of the molar value.

Experiments:
human FGFR2b = human FGFR2b (Homo sapiens, UniProt P21802); experiment: ELISA protein binding to human FGFR2b (Example 4); conditions: coated protein
Procedure: (§1) The binding affinity and specificity of purified anti-FGFR2b antibodies were determined by ELISA and FACS. […] After incubation and washing, the plates were developed with HRP substrate and absorbance was measured. […] After washing twice with FACS buffer, diluted Alexa Fluor 647 goat anti-human IgG secondary antibody was added and incubated with cells for 30 minutes at 4° C. in the dark. After washing twice with FACS buffer, cells were resuspended with FACS buffer and read using a Becton Dickinson LSR FortessaTM cell analyzer. Non-specific binding of these antibodies was evaluated by FACS binding against parental 293T blank cells. Titration curves were generated using a sigmoidal dose-response of nonlinear fit from GraphPadTM Software by Dotmatics.

Human FGFR2c = Human FGFR2c (Homo sapiens, UniProt P21802); experiment: ELISA protein binding to human FGFR2c (Example 4); conditions: coated protein
Procedure: as §1

Human FGFR2b OE cells = target: T1, Human FGFR2b OE cells (Homo sapiens, UniProt P21802); experiment: FACS cellular binding, human FGFR2b OE cells (Example 4)
T1 construct: expressed in transfected cells; host or cells: 293T
Procedure: as §1

Murine FGFR2b OE cells = target: T2, Murine FGFR2b OE cells (Mus musculus, UniProt P21803); experiment: FACS cellular binding, murine FGFR2b OE cells (Example 4)
T2 construct: expressed in transfected cells; host or cells: 293T
Procedure: as §1

Human FGFR2c OE cells = Human FGFR2c OE cells (Homo sapiens, UniProt P21802); experiment: FACS cellular binding, human FGFR2c OE cells (Example 4)
Procedure: as §1

293T blank cells = experiment: FACS non-specific binding, parental 293T blank cells (Example 4)
Procedure: as §1

[1] = target: T3, soluble human FGFR2b proteins (Homo sapiens, UniProt P21802); experiment: SPR binding kinetics (Biacore 8K, Example 5); conditions: room temperature
T3 construct: soluble human FGFR2b proteins (his tag, in-house generated); His tag; made in house
Procedure: The binding affinity and kinetics of purified anti-FGFR2b antibodies were determined by surface plasmon resonance (Biacore 8K, GE Life Sciences) at room temperature. Briefly, mouse anti-human IgG Fc antibody was immobilized via amine coupling onto a activated CM5 biosensor chip (Cat. No. BR100530, GE Life Sciences). Purified monoclonal antibody candidates were flowed over the chip surface and captured by anti-human IgG antibody. Then a serial dilution of soluble human FGFR2b proteins (his tag, in-house generated) were injected over the antibodies captured surface and changes in surface plasmon resonance signals were analyzed to calculate the association rates (kon) and dissociation rates (koff) by using the one-to-one Langmuir binding model (BIA Evaluation Software, GE Life Sciences). The equilibrium dissociation constant (KD) was calculated as the ratio koff/kon.

BaF3_hFGFR2b OE cells = experiment: Ligand-induced proliferation inhibition assay in BaF3_hFGFR2b OE cells; assay type: cell-based; conditions: antibody 10 μg/ml, heparin 5 μg/ml, 72 hours
Procedure: The inhibition activity of antibody on ligand-induced cell proliferation was evaluated in an FGFR2b engineered BaF3 cell line system (BaF3_hFGFR2b OE). BaF3 cells are dependent on interleukin-3 (IL-3) for growth. The BaF3 system allows for testing of kinases and kinase inhibitors. Some protein kinases can render BaF3 cells to be independent of IL-3, whereas kinase inhibitors antagonize this effect. Cells were seeded in 96-well plates at 30,000 cells/well in RPMI-1640 medium containing 10% fetal bovine serum. Anti-FGFR2b antibodies at a concentration of 10 μg/ml were added to the assay plates. Recombinant human FGF7 or FGF10 protein (40 ng/ml) in the presence of heparin (5 μg/ml) was added to the assay plates. The plates were incubated at 37° C., 5% CO2, 95% humidity in an incubator for 72 hours. Following incubation, 50 μl Cell Titer Glo reagent was added to each well and the plates were mixed for 1 min and then incubated at RT for 10 min. Luminescence signals were detected and recorded.
The Ba/F3 system is used to investigate downstream oncogenic signaling pathways and the susceptibility of driver variants to therapeutics. Driver-addicted Ba/F3 cells die when the driver-engaged signaling pathway is inhibited, and this effect can be rescued by re-introduction of […].
FIGS. 6 and 7 show the results of Ba/F3 proliferation assays. […]

[2] = test system: phosphorylated FGFR in SNU-16 cells; experiment: Inhibition of FGFR2 signaling in SNU-16 cells (Western blot of pFGFR); assay type: cell-based; conditions: antibody 10 μg/ml, 2 hours
Procedure: Inhibition of the FGFR2 signaling pathway by the humanized antibodies was investigated. SNU-16 cells were grown in RPMI-1640 medium with 10% FBS, collected and washed twice with free medium and then seeded in 12-well plates at 1.5E6 cells/well in serum-free RPMI-1640. The plates were incubated at 37° C., 5% CO2, and 95% humidity in an incubator overnight. Anti-FGFR2b antibodies at a concentration of 10 μg/ml were added to the assay plates. Recombinant human FGF7 or FGF10 protein (10 ng/ml) in the presence of heparin (5 μg/ml) was added to the assay plates. The plates were incubated in a 37° C., 5% CO2, 95% humidity incubator for 2 hours. Following 2 hours incubation, cells were collected and washed twice with cold PBS. NP40 lysis buffer containing 1×PMSF and 1× Protease plus phosphatase inhibitors were added to the cell pellets. The mixture was pipetted up and down to suspend the pellet. The mixture was inverted gently and each placed for 10 minutes on ice, for a total of 30 minutes. The mixture was centrifuged at 12000× rpm for 10 minutes to pellet the cell debris. The supernatant was transferred to a new tube to quantify total protein concentration by BCA Kit. The protein samples were then split and stored at −80° C. for further Western blotting to detect the expression of pFGFR and total FGFR2. […]

[3] = test system: co-inoculated HSC-39+SNU-5 xenografts; experiment: Co-inoculated HSC-39+SNU-5 gastric cancer xenografts; assay type: in vivo, BALB/c nude mice; conditions: HSC-39:SNU-5 ratios of 2:1 and 5:1, single dose 10 mpk i.v.
Procedure: HSC-39 and SNU-5 were cultured in Dulbecco's modified Eagle's medium (DMEM), supplemented with 10% (v/v) fetal bovine serum, 100 U/ml penicillin, and 100 μg/mL streptomycin. Cells were incubated in a humidified incubator with 5% CO2 at 37° C. On the day of implantation, cells were collected and washed with serum-free medium. Six- to eight-week-old female BALB/c nude mice were purchased and housed in ventilated cages, given food and water ad libitum, and allowed to acclimate for approximately 1 week prior to inoculation. A total of 5×10^6 HSC-39 and SNU-5 cancer cells mixed with matrigel at a ratio of 2:1 or 5:1 were implanted subcutaneously into the mouse flank. […] Tumor volumes were measured twice weekly. Data is presented as mean tumor volume ±standard error of the mean (SEM). In the vehicle group at a 2:1 HSC-39:SNU-5 ratio, there were ˜50% FGFR2b positive cells in the tumor at the starting point with ˜40% at the end point. In the vehicle group at a 5:1 HSC-39:SNU-5 ratio, there were ˜60% FGFR2b positive cells in the tumor at the starting point with ˜20% at the end point.

[4] = patients; cited from earlier work

T3 sequence (P21802 22-378 isoform P21802-3 limits assumed): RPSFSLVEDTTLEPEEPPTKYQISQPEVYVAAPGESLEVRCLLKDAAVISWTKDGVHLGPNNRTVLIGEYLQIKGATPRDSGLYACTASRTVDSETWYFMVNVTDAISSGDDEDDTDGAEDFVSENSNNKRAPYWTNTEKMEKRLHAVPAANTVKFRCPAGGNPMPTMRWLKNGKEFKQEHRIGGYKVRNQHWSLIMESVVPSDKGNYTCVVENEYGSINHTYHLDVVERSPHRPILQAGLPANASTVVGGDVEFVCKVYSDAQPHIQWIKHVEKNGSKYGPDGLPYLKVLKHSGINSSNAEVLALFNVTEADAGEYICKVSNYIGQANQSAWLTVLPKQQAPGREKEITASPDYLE
human FGFR2b, sequence (P21802 22-822 isoform P21802-3 limits assumed): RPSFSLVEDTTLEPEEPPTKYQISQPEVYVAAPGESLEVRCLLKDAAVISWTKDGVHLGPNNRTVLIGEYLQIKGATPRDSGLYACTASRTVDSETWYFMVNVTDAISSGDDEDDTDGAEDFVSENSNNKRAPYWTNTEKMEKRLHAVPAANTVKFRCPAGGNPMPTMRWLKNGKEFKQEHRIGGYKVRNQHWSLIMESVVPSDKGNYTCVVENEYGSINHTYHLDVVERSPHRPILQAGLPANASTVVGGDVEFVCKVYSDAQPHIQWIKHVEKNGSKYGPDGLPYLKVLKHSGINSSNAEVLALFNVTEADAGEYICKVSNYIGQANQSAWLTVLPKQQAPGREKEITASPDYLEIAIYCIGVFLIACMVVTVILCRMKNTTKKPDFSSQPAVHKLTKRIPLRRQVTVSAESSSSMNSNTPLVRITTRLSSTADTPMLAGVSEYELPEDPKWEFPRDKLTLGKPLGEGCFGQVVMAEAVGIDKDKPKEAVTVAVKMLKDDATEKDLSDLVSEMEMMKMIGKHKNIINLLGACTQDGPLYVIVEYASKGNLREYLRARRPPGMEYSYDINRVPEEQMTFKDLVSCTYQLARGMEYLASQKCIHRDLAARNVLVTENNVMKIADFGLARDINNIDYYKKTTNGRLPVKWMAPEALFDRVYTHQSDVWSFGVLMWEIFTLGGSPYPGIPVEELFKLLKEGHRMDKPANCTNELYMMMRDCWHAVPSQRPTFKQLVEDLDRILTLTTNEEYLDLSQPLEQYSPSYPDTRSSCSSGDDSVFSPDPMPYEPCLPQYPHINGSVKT
Human FGFR2c OE cells, sequence (P21802 22-821): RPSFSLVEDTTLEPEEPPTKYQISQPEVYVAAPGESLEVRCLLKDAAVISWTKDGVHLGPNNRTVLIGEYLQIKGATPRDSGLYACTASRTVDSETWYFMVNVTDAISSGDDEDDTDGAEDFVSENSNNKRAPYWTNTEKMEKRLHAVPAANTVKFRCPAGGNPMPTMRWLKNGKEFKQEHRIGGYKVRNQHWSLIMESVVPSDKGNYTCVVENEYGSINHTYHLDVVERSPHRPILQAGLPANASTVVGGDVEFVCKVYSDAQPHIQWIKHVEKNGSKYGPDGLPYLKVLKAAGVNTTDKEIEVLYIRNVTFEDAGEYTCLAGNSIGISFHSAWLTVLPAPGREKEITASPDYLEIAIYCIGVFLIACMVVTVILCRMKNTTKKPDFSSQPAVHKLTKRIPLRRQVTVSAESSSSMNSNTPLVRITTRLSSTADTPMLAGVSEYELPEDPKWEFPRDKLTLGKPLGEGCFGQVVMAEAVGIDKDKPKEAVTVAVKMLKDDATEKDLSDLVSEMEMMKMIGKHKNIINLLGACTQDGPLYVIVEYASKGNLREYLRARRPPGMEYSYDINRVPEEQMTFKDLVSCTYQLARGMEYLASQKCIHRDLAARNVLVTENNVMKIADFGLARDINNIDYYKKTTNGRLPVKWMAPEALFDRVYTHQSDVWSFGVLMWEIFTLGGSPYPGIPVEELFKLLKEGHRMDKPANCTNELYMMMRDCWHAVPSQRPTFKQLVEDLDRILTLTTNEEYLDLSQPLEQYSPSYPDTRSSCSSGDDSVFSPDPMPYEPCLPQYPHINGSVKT
Human FGFR2c, sequence (P21802 22-821): as above
T1 sequence (P21802 22-822 isoform P21802-3 limits assumed): as the sequence (P21802 22-822 isoform P21802-3 limits assumed) above
T2 sequence (P21803 22-707 isoform P21803-2 limits assumed): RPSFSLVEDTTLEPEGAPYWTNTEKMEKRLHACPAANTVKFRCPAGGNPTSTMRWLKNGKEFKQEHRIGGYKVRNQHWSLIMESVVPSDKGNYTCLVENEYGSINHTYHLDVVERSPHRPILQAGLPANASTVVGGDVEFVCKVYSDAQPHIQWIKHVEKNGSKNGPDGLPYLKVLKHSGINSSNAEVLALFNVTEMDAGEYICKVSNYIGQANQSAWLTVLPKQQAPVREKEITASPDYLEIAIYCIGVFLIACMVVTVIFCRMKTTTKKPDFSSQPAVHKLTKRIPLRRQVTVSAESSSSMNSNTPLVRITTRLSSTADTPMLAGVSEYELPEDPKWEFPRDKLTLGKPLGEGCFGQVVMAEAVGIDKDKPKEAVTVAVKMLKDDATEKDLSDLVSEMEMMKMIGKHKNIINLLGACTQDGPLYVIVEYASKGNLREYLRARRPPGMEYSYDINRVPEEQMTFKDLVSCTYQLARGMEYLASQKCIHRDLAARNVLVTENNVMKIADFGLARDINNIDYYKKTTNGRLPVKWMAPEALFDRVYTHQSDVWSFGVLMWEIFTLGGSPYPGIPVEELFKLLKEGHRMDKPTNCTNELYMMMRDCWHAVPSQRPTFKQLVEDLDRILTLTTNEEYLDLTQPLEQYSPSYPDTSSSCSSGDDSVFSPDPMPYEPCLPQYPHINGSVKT

Substance: BGA1421: comparator antibody bemarituzumab, un-conjugated; HC SEQ ID NO: 35, LC SEQ ID NO: 36 [reference compound]
- pEC50 (human FGFR2b): 9.21
- Human FGFR2b binding Emax(OD450) (human FGFR2b): 2.62 OD450
- Human FGFR2c binding Emax(OD450) (Human FGFR2c): 0.09 OD450
- pEC50 (Human FGFR2b OE cells): 9.32
- pEC50 (Murine FGFR2b OE cells): 9.09
- Human FGFR2c OE cells binding Emax (Human FGFR2c OE cells): 40 MFI
- 293T blank cells binding Emax (293T blank cells): 18 MFI
- ka ([1]; antibody captured): 104000 M⁻¹ s⁻¹
- kd ([1]; antibody captured): 0.00232 s⁻¹
- pKd ([1]; koff/kon): 7.65
- inhibition of FGF7-induced BaF3_hFGFR2b cell proliferation (BaF3_hFGFR2b OE cells; FGF7 40 ng/ml): potently inhibit
- inhibition of FGF10-induced BaF3_hFGFR2b cell proliferation (BaF3_hFGFR2b OE cells; FGF10 40 ng/ml): potently inhibit
- FGF7-induced FGFR phosphorylation ([2]; FGF7 10 ng/ml): down-regulation of phosphorylated FGFR
- FGF10-induced FGFR phosphorylation ([2]; FGF10 10 ng/ml): down-regulation of phosphorylated FGFR
- tumor growth [3]: inhibited tumor growth but was less potent
- treatment discontinuation rate caused by corneal toxicity [4]: 26%
